Reference: the Human Domainome abundance scans (Beltran et al. 2025)
± gives the uncertainty stated by the source.

B1: Spectrin alpha chain, erythrocytic 1, residues 979 to 1036; numbered along this chain, P02549 (parent)
chain: EQRVMALYDFQARSPREVTMKKGDVLTLLSSINKDWWKVEAADHQGIVPAVYVRRLAH

Variants of: B1
Assay: abundance fitness (aPCA) (normalised: wild type 0, dead -1); higher = more abundant; growth selection in yeast, the domain comes from the species named
Conditions: Homo sapiens
Variant S14P has an abundance fitness of -0.802 ± 0.19.
S14Q gave an abundance fitness of -0.769 ± 0.26.
Variant S14D has an abundance fitness of 0.134 ± 0.24.
For H44G, the abundance fitness was 0.292 ± 0.081.
For H44V, the abundance fitness was -0.156 ± 0.12.
H44C showed an abundance fitness of -0.016 ± 0.35.
In the case of H44M, the abundance fitness is reported as -0.039 ± 0.28.
Work on H44S yielded an abundance fitness of 0.03 ± 0.1.
In the case of H44Q, the abundance fitness is reported as 0.119 ± 0.2.
H44W gave an abundance fitness of -0.483 ± 0.23.
In the case of H44T, the abundance fitness is reported as -0.107 ± 0.23.
N33C gave an abundance fitness of -0.929 ± 0.38.
N33S showed an abundance fitness of -0.35 ± 0.34.
N33D gave an abundance fitness of 0.224 ± 0.22.
For N33E, the abundance fitness was -0.064 ± 0.21.
Variant N33A has an abundance fitness of -0.751 ± 0.17.
With N33V the abundance fitness was -0.833 ± 0.3.
In the case of R3C, the abundance fitness is reported as -0.645 ± 0.34.
For R3P, the abundance fitness was -0.94 ± 0.36.
Work on R3A yielded an abundance fitness of -0.574 ± 0.2.
With R3M the abundance fitness was -0.448 ± 0.14.
In the case of R3W, the abundance fitness is reported as -0.209 ± 0.26.
In the case of R3L, the abundance fitness is reported as -0.14 ± 0.11.
R3K showed an abundance fitness of 0.226 ± 0.099.
R3Y showed an abundance fitness of 0.294 ± 0.17.
Variant R54G has an abundance fitness of -0.491 ± 0.16.
Variant R54Q has an abundance fitness of 0.052 ± 0.26.
Variant A6C has an abundance fitness of -0.048 ± 0.27.
A6P showed an abundance fitness of -0.882 ± 0.19.
With A6G the abundance fitness was -0.76 ± 0.14.
With A6Y the abundance fitness was -0.794 ± 0.31.
A6T showed an abundance fitness of -0.685 ± 0.41.
With A6V the abundance fitness was -0.861 ± 0.13.
Variant A6Q has an abundance fitness of -0.975 ± 0.2.
Work on S30C yielded an abundance fitness of -0.337 ± 0.28.
Variant S30G has an abundance fitness of -0.041 ± 0.14.
Variant V53A has an abundance fitness of -0.766 ± 0.25.
V53W showed an abundance fitness of -0.634 ± 0.43.
V53P showed an abundance fitness of -0.579 ± 0.42.
With D9M the abundance fitness was -0.855 ± 0.19.
Work on D9T yielded an abundance fitness of -0.862 ± 0.3.
D9G showed an abundance fitness of -0.652 ± 0.11.
D9V gave an abundance fitness of -0.934 ± 0.14.
With D9R the abundance fitness was -0.943 ± 0.23.
E1D gave an abundance fitness of 0.242 ± 0.32.
Work on L56W yielded an abundance fitness of -0.982 ± 0.33.
L56M showed an abundance fitness of -0.029 ± 0.31.
Variant L56T has an abundance fitness of -0.448 ± 0.3.
L56S showed an abundance fitness of -0.006 ± 0.21.
L56V showed an abundance fitness of -0.207 ± 0.23.
Work on L56A yielded an abundance fitness of -0.882 ± 0.21.
E40G showed an abundance fitness of -0.217 ± 0.14.
With E40M the abundance fitness was -0.125 ± 0.26.
E40V showed an abundance fitness of -0.573 ± 0.21.
With E40A the abundance fitness was 0.243 ± 0.058.
With Q11H the abundance fitness was -0.421 ± 0.37.
In the case of Q11G, the abundance fitness is reported as -0.774 ± 0.11.
With Q11S the abundance fitness was -0.372 ± 0.1.
With Q11M the abundance fitness was -0.314 ± 0.092.
Q11E gave an abundance fitness of -0.328 ± 0.34.
Variant Q11C has an abundance fitness of -0.348 ± 0.094.
Variant Q11A has an abundance fitness of -0.37 ± 0.14.
In the case of Q11D, the abundance fitness is reported as -0.582 ± 0.38.
For Q11V, the abundance fitness was 0.097 ± 0.13.
In the case of Q11P, the abundance fitness is reported as -0.91 ± 0.37.
Q11I gave an abundance fitness of -0.419 ± 0.33.
Variant Q11T has an abundance fitness of 0.028 ± 0.14.
W37M gave an abundance fitness of -0.12 ± 0.2.
In the case of W37V, the abundance fitness is reported as 0.367 ± 0.1.
W37R gave an abundance fitness of -0.267 ± 0.2.
In the case of W37C, the abundance fitness is reported as -0.386 ± 0.25.
With W37D the abundance fitness was -0.644 ± 0.23.
Work on D24V yielded an abundance fitness of -0.421 ± 0.27.
D24L showed an abundance fitness of -0.986 ± 0.26.
For M20W, the abundance fitness was -0.622 ± 0.14.
Work on M20P yielded an abundance fitness of -0.831 ± 0.38.
M20L gave an abundance fitness of -0.276 ± 0.092.
With M20V the abundance fitness was -0.22 ± 0.12.
In the case of M20F, the abundance fitness is reported as -0.681 ± 0.24.
Variant A12S has an abundance fitness of -0.802 ± 0.24.
Variant A12W has an abundance fitness of -0.804 ± 0.4.
With A12M the abundance fitness was -0.891 ± 0.41.
Variant A12G has an abundance fitness of -0.779 ± 0.2.
